# Ends that are not written are not given here.
# Molecular target: T1, Soluble human FGFR1c/KLB receptor complex (FGFR1c ectodomain-Fc with soluble KLB) (human, UniProt P11362 22-376; Q86Z14 1-996)
# Assay: AlphaScreen competition with biotinylated FGF21
# T1 sequence (P11362 22-376, chain 1 of 2): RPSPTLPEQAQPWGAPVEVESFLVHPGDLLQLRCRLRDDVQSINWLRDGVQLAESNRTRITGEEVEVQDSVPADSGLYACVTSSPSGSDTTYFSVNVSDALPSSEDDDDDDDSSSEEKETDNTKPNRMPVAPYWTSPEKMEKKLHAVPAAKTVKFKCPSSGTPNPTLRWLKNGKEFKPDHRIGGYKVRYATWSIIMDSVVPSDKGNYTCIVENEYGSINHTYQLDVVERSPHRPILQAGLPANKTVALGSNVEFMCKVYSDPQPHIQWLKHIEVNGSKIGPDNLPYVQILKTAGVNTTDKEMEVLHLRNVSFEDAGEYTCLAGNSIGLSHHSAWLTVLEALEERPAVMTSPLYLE
# T1 sequence (Q86Z14 53-996, chain 2 of 2): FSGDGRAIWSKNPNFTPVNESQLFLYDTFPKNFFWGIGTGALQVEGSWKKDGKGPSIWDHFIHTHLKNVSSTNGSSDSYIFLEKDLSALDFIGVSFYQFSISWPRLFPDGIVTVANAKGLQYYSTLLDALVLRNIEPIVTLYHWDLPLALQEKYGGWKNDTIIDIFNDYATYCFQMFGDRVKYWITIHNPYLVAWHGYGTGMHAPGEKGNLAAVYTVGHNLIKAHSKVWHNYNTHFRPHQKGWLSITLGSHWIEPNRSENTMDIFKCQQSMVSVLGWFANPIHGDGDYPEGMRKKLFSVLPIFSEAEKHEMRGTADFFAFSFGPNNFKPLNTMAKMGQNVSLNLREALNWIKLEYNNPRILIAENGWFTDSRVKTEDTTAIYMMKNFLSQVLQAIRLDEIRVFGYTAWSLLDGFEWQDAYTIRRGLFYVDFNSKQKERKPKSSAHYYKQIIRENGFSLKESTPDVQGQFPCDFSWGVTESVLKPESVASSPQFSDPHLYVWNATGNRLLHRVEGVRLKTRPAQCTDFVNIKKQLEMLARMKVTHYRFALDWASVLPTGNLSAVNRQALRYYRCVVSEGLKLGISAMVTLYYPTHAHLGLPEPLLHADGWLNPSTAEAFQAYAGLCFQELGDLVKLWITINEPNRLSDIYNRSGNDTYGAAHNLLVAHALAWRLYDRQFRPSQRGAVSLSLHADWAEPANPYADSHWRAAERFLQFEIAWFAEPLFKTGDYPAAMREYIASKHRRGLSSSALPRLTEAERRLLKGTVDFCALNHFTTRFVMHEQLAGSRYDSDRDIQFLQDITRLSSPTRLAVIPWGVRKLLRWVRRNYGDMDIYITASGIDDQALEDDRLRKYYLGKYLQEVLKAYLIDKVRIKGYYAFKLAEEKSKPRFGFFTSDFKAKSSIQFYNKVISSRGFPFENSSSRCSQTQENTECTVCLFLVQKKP
row,IC50,Binder
1,150 nM,PPDVGSSDPLSMVGPSQGRSPSYAS-NH2 [21C25 (C-terminal 25-residue peptide of FGF21)]

# Molecular target: T1, Soluble human FGFR1c/KLB receptor …
# Assay: AlphaScreen competition with biotinylated FGF21
# Remark: another data set of the same source
row,IC50,Binder
1,50 nM,PPDVGSSDPLSMVGPSQGASPSYAS-NH2 [21C25 R175A]
2,120 nM,PPDVGSSDPLSMVGPAQGRSPSYAS-NH2 [21C25 S172A]
3,130 nM,PPDVGSSDPLSMVGASQGRSPSYAS-NH2 [21C25 P171A]
4,420 nM,APDVGSSDPLSMVGPSQGRSPSYAS-NH2 [21C25 P157A]
5,190 nM,PPDVGSADPLSMVGPSQGRSPSYAS-NH2 [21C25 S163A]
6,3980 nM,PPDAGSSDPLSMVGPSQGRSPSYAS-NH2 [21C25 V160A]
7,150 nM,PPDVGSSDPLSMVGPSQARSPSYAS-NH2 [21C25 G174A]
8,2580 nM,PPDVGSSDPLSMVGPSQGRSPSAAS-NH2 [21C25 Y179A]
9,2870 nM,PPDVGSSDPLSMVGPSQGRSPAYAS-NH2 [21C25 S178A]
10,160 nM,PPDVASSDPLSMVGPSQGRSPSYAS-NH2 [21C25 G161A]
11,50 nM,PPDVGSSDPLSMVGPSQGRSPSYAA-NH2 [21C25 S181A]
12,3140 nM,PPDVGSSDPLSMVGPSQGRAPSYAS-NH2 [21C25 S176A]
13,1390 nM,PPAVGSSDPLSMVGPSQGRSPSYAS-NH2 [21C25 D159A]
14,3110 nM,PPDVGSSDPLSMAGPSQGRSPSYAS-NH2 [21C25 V169A]
15,2500 nM,PPDVGSSDPLSMVGPSQGRSASYAS-NH2 [21C25 P177A]
16,890 nM,PADVGSSDPLSMVGPSQGRSPSYAS-NH2 [21C25 P158A]
17,180 nM,PPDVGSSDPLSMVAPSQGRSPSYAS-NH2 [21C25 G170A]
18,70 nM,PPDVGSSDPLSMVGPSAGRSPSYAS-NH2 [21C25 Q173A]
19,2130 nM,PPDVGASDPLSMVGPSQGRSPSYAS-NH2 [21C25 S162A]
20,200 nM,PPDVGSSDPLAMVGPSQGRSPSYAS-NH2 [21C25 S167A]

# Reference: PMC6026317 (2018)
